Results on one molecule are retold here after patent US20230270861A1, “Inhibitors of the Artemin Pathway for Treatment of Cancer” (The University of Chicago, priority 2020, published 2023).

One assay deals with LLC tumor. Put plainly: Tumor growth of LLC tumor-bearing mice treated with IR or anti-PD-L1 plus test agent. The class given is in vivo, mouse. Particulars: LLC tumor-bearing B6 mice; agent combined with 20 Gy IR or anti-PD-L1. The procedure: Tumor models and treatments. 1×10^6 MC38, LLC, or B16-SIY tumor cells were subcutaneously injected into the flank of mice. On day 10 after tumor inoculation, tumors were either irradiated with one dose of 20 Gy or mice received sham treatment. For anti-PD-L1 treatment experiments, 200 μg anti-PD-L1 (10F.9G2) or isotype control was given by i.p. every three days for a total of four times starting on day 10 after tumor inoculation. For type I IFN blockade experiments, 200 μg anti-IFNAR1 were intratumorally injected on days 0 and 2 after irradiation. For CD4 or CD8 T cell depletion experiments, 200 μg anti-CD4 or anti-CD8 mAb was delivered four times by i.p. injection every 3 days starting 1 day before therapies. Artemin-neutralizing antibody was delivered i.t. at 1 μg/mouse starting on day of irradiation, every 2 days for 7 doses. For Ter-cell depletion, anti-ter119 was injected i.p. at 20 μg/mouse every 2 days for 4 doses. For Ter-cell or artemin treatment groups, mice were administered 1×10^7 purified Ter cells i.v. every other day for a total of three doses, or mice were treated with 0.5 μg/mouse artemin i.t. every other day starting on day 0 of therapies throughout the studies. For EPO treatment groups, mice were treated with 20 U/mouse EPO i.v. every other day throughout the studies, starting on day 0 of the therapies. IFN-γ was administered through intrasplenic injection on day 15 post tumor implantation at 2 μg/mouse for 1 dose. LOXO-292 was administered by oral gavaging at 100 μg/mouse/day throughout the entire studies, starting on day 0 of the therapies. Spleens were harvested on day 20 or at indicated times post-inoculation for analysis of spleen size or splenic cells. Tumor size was monitored and calculated with the formula for area (length×width).

For another assay, the system named is CD8 T cells. The experiment in a line: In vitro CD8 T cell treatment with artemin. The class given is cell-based, mouse. Particulars: 24 hours. The method, then: (§1) FIGS. 71A-71I. […] (FIGS. 71A-71E) CD8 T cells were purified from WT spleen and treated with recombinant artemin for 24 hours (150 ng/mL for FIGS. 71B, 71C, 71D, and 71E). T proliferation was examined (FIG. 71A), and the indicated effector molecules were analyzed by flow cytometry (FIGS. 71B, 71C, and 71D) and q-PCR (FIG. 71E). (FIGS. 71F-71I) MC38 murine colon cancer tumors were treated with artemin (i.t.), and single cell suspensions of tumors were stained with indicated markers and examined by flow cytometry (FIGS. 71F, 71G, 71H, and 71I).
In vitro testing: CD8 T cell treatment with artemin. CD8 T cells were isolated from spleens of naïve mice. CD8 T cells were cultured with T cell activation beads for 3 days and labeled with DNA dye cellTrace violet, followed by co-culturing with 150 ng/mL recombinant artemin for 24 hours. T cells were then washed and stimulated by stimulation cocktail and protein transport cocktail for 6 hours before being subjected to intracellular antibody staining.

Another assay relates to MC38-OTI-zsGreen cells. Put plainly: CD8+ T cell mediated killing (apoptosis) of MC38-OTI-zsGreen cells. Particulars: 100 ng/mL artemin for 6 h. In kind it is cell-based, mouse. The procedure: FIGS. 41A-41B. (FIG. 41A) Apoptosis of MC38 cells as analyzed by flow cytometry. 1×10^5 MC38-OTI-zsGreen cells were co-cultured with 2×10^5 CD8^+ T cells purified from OTI mice in 96-well U bottomed plates. Tumor cells were either co-cultured with 2×10^5 Ter-cells sorted from spleens of tumor-bearing mice or treated with 100 ng/mL artemin for 6 h. Representative data are shown from three experiments. Data are represented as mean±SD. *p<0.05, **p<0.01 and ***p<0.001. (FIG. 41B) Apoptosis of MC38 cells was analyzed by flow cytometry. 1×10^5 MC38-OTI-zsGreen cells were co-cultured with 2×10^5 CD8+ T cells purified from OTI mice in 96-well U bottom plates. Tumor cells were either co-cultured with 2×10^5 Ter-cells sorted from spleen of tumor-bearing mice or treated with 100 ng/mL artemin (ARTN) for 6 h. Representative data are shown from two or three experiments conducted with 3-5 mice or samples per group.

The subject of assay [1] is CD8 T cells and bone marrow derived MDSCs. Put plainly: qPCR of possible artemin receptors in CD8 T cells and MDSCs co-cultured with artemin. In kind it is cell-based, mouse. The note with it: co-culture with artemin. The source says:
(§2) FIGS. 73A-73D. Study of the effects of artemin and radiation on mRNA expression of possible artemin receptors in different immune cells. (FIG. 73A) mRNA level of known GDNF receptors in CD8+ T cells after co-culture with artemin. (FIG. 73B) mRNA level of known GDNF receptors in MDSCs (CD11b+Ly6C+) cells. GFRα1, GFRα3 and NCAM expression in DC (FIG. 73C) and natural killer (NK) cells (FIG. 73D) in tumors responding to artemin or/and radiation treatments. R1, GFRα1; R3, GFRα3.
Quantitative PCR (qPCR). Expression of possible artemin receptors GFRα1 (primers: SEQ ID NOs: 5, 6), GFRα3 (primers: SEQ ID NOs: 7, 8), Syndecan 3 (primers: SEQ ID NOs: 9, 10), NCAM (primers: SEQ ID Nos: 11, 12), and RET (SEQ ID Nos: 13, 14) was analyzed by qPCR in CD8 T cells and bone marrow derived MDSCs during co-culture with artemin.
A general note: Quantitative PCR measures a nucleic acid by following its amplification.

For a further assay, the system named is MC38 cells. Put plainly: Colony formation assay of irradiated MC38 cells. In kind it is cell-based, mouse. The note with it: 0, 1 or 3 Gy; 100 ng/mL artemin. The procedure:
FIG. 40. Colony formation assay of MC38 cells treated with 0, 1, or 3 Gy irradiation. MC38 cells were either co-cultured with 2×10^6 Ter-cells (left) sorted from spleens of tumor-bearing mice, or treated with 100 ng/mL artemin (right). Representative data are shown from three experiments. Data are represented as mean±SD. *p<0.05, **p<0.01, and ***p<0.001.

In assay [2] the test system is MC38 murine colon cancer tumors. The experiment in a line: In vivo MC38 murine colon cancer treatment with artemin (i.t.), flow cytometry of tumor cells. More on the design: species or system mouse. The method, then:
as §1
FIGS. 72A-72C. […] MC38 tumor were digested into single cell suspension and stained with markers that characterize T cells, DCs, and MDSCs. Flow cytometry was performed. […] (FIG. 72B) Changes in CD4 T cells.
In vivo testing: MC38 murine colon cancer treatment with artemin. Established MC3 8 murine colon cancer tumors were treated with artemin by intra-tumoral injection. Tumors were digested into single cell suspension, stimulated and stained with intracellular antibodies. Cells were analyzed by flow cytometry.
(A flow cytometer gives signals particle by particle.)

Assay [3] has as its system Lewis lung carcinoma (LLC) tumors. The experiment in a line: Flow cytometry of GFRα1, GFRα3 and NCAM in LLC tumors treated with artemin and/or IR. In kind it is in vivo, mouse.
Source text: as §2
Radiation (IR) treatment analysis. We treated established Lewis lung carcinoma (LLC) tumors with control, artemin, IR, and artemin+IR (20 Gy IR). Flow cytometry with staining of GFRα1, GFRα3 and NCAM receptors was performed.

B1: artemin: Recombinant mouse artemin (1085-AR) from R&D Systems; neurotropic factor of the GDNF family (protein)
chain: AGTRSSRARTTDARGCRLRSQLVPVSALGLGHSSDELIRFRFCSGSCRRARSQHDLSLASLLGAGALRSPPGSRPISQPCCRPTRYEAVSFMDVNSTWRTVDHLSATACGCLG
As to B1, the “Tumor growth: influence on the therapeutic effect of IR and PD-L1 blockade” value in the assay with LLC tumor is “diminished the anti-tumor effects of IR and PD-L1 blockade”. Besides, in the assay with CD8 T cells (200 ng/mL), the “CD8 T cell proliferation” value is given as “reduced CD8 T cell proliferation”. In addition, the “Production of IFN-γ, granzyme B and TNFα in T cells (protein and RNA level)” value in the assay with CD8 T cells was “decreases in production”. Also, the “CD8+ T cell mediated killing of tumor cells” value with MC38-OTI-zsGreen cells was “impaired”. Further, in assay [1], the “GFRα1 mRNA in MDSC cells” value was “induction of GFRα1” and the “GFRα3 mRNA in CD8 T cells” value is reported as “Induction of GFRα3”. In addition, the “Radio-resistance of MC38 tumor cells (colony formation)” value with MC38 cells was “increased the radio-resistance”. For the same molecule, in assay [2], the “CD4 T helper cell numbers” value is “not significantly changed”; the “PD-L1 expression on dendritic cells (CD11C+) and MDSCs (CD11b+Ly6C+)” value was “induced PD-L1 expression”; the “Treg percentage in CD4 T cells” value is given as “significantly increased”. In assay [2] (artemin i.t.), the “Frequency of total CD8 T cell among CD45+ cells” value is on record as “did not alter frequency”; the “IFN-γ production in intratumoral T cells” value was “not significant”; the “Production of granzyme B and TNFα proteins in intratumoral T cells” value is on record as “significantly reduced”. For the same molecule, the “Expression of exhaustion markers PD-1, LAG3 and TIM3” value in assay [2] (intratumoral T cells) was “did not change the expression”. In assay [3], the “GFRα3 expression on NK cells” value is “induces GFRα3 expression”.
